Reference: patent US20020106775

System: plasminogen

LMW-uPA-A279 (LMW-uPA with Cys279 to Ala279 replacement)
zymography: the product shown to be active in zymography (data not shown)
